Values of other authors, collected in article PMC5322387.
Blank lines part the entries; values can stand above or below the substance they belong to.

What was measured:
E2 L2 L2 (Homo sapiens) [1] = molecular target: E2 L2 L2 (Homo sapiens) (UniProt P10515); test: ITC
[2] = molecular target: E3BP L3 L3 (Homo sapiens) (UniProt O00330); test: ITC
E2 L2 L2 (Homo sapiens) [3] = molecular target: E2 L2 L2 (Homo sapiens) (UniProt P10515); test: gel filtration

Chain of E2 L2 L2 (Homo sapiens) (P10515 218-294): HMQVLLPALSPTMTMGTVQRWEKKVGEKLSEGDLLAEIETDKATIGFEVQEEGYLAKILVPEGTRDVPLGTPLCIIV
Chain of PDK3 (Q15120 2-406): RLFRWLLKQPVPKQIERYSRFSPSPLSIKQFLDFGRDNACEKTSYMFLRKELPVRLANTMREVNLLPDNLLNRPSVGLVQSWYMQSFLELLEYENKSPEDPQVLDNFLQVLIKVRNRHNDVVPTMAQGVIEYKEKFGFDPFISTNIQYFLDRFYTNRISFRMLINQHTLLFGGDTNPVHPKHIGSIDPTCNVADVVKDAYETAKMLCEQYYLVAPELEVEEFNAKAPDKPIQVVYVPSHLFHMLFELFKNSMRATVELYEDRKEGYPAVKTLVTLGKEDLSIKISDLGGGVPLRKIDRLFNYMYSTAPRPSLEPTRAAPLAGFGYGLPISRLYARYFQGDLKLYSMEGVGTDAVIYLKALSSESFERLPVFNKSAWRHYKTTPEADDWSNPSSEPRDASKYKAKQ
Chain of E3BP L3 L3 (Homo sapiens) (O00330 56-132): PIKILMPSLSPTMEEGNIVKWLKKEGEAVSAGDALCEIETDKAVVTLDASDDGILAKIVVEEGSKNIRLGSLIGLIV
Chain of PDK4 (Q16654 2-411): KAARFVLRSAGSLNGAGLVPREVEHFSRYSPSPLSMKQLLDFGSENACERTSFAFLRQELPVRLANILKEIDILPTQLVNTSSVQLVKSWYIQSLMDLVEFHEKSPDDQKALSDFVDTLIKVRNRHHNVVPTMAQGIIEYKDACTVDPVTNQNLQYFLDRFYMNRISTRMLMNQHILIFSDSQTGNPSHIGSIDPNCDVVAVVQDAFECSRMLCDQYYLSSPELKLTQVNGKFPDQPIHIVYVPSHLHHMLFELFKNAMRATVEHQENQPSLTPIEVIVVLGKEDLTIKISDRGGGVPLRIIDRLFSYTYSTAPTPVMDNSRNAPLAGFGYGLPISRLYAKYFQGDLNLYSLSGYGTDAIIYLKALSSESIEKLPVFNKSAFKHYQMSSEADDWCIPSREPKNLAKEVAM
Chain of PDK1 (Q15118 29-436): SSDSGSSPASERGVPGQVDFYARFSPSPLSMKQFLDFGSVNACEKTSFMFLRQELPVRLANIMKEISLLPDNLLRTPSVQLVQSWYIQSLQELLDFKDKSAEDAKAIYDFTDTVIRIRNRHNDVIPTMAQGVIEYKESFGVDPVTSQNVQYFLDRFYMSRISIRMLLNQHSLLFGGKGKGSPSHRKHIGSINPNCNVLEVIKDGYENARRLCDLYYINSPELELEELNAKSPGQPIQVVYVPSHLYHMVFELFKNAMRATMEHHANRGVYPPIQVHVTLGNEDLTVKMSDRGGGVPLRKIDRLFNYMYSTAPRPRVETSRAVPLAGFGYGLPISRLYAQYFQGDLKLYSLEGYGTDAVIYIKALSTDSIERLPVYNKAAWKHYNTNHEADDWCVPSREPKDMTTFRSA

Kd (E2 L2 L2 (Homo sapiens) [1]): 1.17 µM
Substance: PDK3 (from UniProt Q15120)

Kd [2]: 5 µM
Substance: PDK4 (from UniProt Q16654)

Kd (E2 L2 L2 (Homo sapiens) [3]): 10 µM
Substance: PDK1 (from UniProt Q15118)
